US20250025549A1

What was measured:
[1] = target: dipeptidyl peptidase IV (DPP4), the MERS-CoV receptor, His-tagged (human) (UniProt P27487); assay: ELISA, spike coated, His-tagged hDPP4 titrated
[2] = target: dipeptidyl peptidase IV (DPP4), the MERS-CoV receptor, His-tagged (human) (UniProt P27487)

Chain of dipeptidyl peptidase IV (DPP4), the MERS-CoV receptor, His-tagged (human) (P27487 29-766 limits assumed): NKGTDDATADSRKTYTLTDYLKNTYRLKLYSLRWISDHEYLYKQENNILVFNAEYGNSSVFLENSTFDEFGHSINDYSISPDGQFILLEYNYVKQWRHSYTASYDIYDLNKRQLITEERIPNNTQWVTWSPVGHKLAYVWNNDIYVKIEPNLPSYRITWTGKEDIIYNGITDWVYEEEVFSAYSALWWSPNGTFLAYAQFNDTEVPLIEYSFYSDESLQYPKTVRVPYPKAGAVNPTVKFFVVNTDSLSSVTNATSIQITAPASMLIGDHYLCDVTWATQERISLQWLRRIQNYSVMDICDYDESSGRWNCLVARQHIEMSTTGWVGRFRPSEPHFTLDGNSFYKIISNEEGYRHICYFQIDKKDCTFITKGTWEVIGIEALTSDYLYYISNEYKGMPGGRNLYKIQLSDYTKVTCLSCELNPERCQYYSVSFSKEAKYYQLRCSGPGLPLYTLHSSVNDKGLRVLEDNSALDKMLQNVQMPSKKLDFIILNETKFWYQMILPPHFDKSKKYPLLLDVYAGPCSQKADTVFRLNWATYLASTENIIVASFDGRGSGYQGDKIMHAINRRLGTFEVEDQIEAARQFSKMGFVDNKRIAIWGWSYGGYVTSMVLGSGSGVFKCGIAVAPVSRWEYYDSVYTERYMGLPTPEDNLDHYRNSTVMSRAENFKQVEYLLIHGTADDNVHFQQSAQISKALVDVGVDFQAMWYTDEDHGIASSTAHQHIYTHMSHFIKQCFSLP

## BV2373 CoV S polypeptide (SEQ ID NO: 87) (from UniProt P0DTC2 14-1273) (other; other documents disagree on this pair)
[1]
  EC50: > 5 µg/mL
[2]
  IC50: > 5 µg/mL
